Test: yeast display, Sf9 membrane polyspecificity reagent, FACS + sequencing; frameworks hold sequencing errors
In short: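 Polyreactivity labels are assigned by the sorting gate from which each nanobody was recovered. The gates were low and high (top ~1%), set on anti-HA fluorescence for expression and streptavidin fluorescence for reagent binding. Before sorting, galactose-induced (36–48 hours) yeast display cells were stained for 1 hour at 4 °C with 10% biotinylated, detergent-solubilized Sf9 membrane reagent.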
In the case of “QVQLVESGGGLVQAGGSLRLSCAASGSTFRSYAMGWYRQSPGNERELVAAISYSGDSTYYADSVKGRFTISSDNAKNTVYLQMNSLKPEDTAVYYCAALRDWDIQCEPWKRYGYWGQGTQVTVSS”, the “polyreactivity (PSR sort gate)” value was “low polyreactivity”. With “QVQLVESGGGLVQAGGSLRLSCAASGSTFRSYTMVWYRQAPGKERELVADINGTGGSTYYADSVKGRFTISRDNAKNTVYLQMNSRKPEDTAVYNCAADGYFRTVTSGWALRMGYWGQGTQVTVSS” the “polyreactivity (PSR sort gate)” value was “high polyreactivity”. With “QVQLVESGGGLVQAGGSLRLSCAASGSTFRTNGMGWYRQAPGKESELVAAITRGTSTNYADSVKGRFTISRDNAKNTVYLQMNSLKPEDTAVYYCAADGPDRYHYTTTRYRYDYWGQGTQVTVSS” the “polyreactivity (PSR sort gate)” value was “low polyreactivity”. For “QVQLVESGGGLVQAGGSLRLSCAASGSTFRTNTMGWYRQAPGKERELVADISWSGGSTYYADSVKGRFTISRDNAKNTVYLQMNSLKPEDTAVYYCAKDGAYWTYFSWYDYWGQGTQVTVSS”, the “polyreactivity (PSR sort gate)” value was “low polyreactivity”. For “QVQLVESGGGLVQAGGSLRLSCAASGSTFRTYAMGWYRQAPGKERELVADITWRGGSTYYADSVKGRFTISRDNAKNTVYLQMNSLKPEDTAVYYCATDRGPEVVLYDYWGQGTQVTVSS”, the “polyreactivity (PSR sort gate)” value was “low polyreactivity”. In the case of “QVQLVESGGGLVQAGGSLRLSCAASGSTFRTYAMGWYRQAPGKERELVASIDSTGSTNYADSVKGRFTISRDNAKNTVYLQMNSLKPEDTAVYYCAAETYSYPPFYAYDYWGQGTQVTVSS”, the “polyreactivity (PSR sort gate)” value was “low polyreactivity”. For “QVQLVESGGGLVQAGGSLRLSCAASGSTFRVNAMGWYRQAHGKEREFVAGISFGGGSTYYADSVKGRFTISRDNAKNTVYFQMNSLKPEDTADYYCNARGKGSGAVRYNYWGQGTLVTVSS”, the “polyreactivity (PSR sort gate)” value was “high polyreactivity”. With “QVQLVESGGGLVQAGGSLRLSCAASGSTFRVNAMGWYRQAPGKERELVAAISYRGGSTYYADSVKGRFTISRDNAKNTVYLQMNNLKPEDTAVYYCNADLKRRTYGPDSYYWGQGTQVTVSS” the “polyreactivity (PSR sort gate)” value was “high polyreactivity”. For “QVQLVESGGGLVQAGGSLRLSCAASGSTFRVNDMGWYRQAPGKESEFVAGISWSGGSTYYADSVKGRFTISRDNAKNTVYLQMNTLKPEETAVYYCAADGYGQGNNRNYNYGGQGTQVTVSS”, the “polyreactivity (PSR sort gate)” value was “low polyreactivity”. In the case of “QVQLVESGGGLVQAGGSLRLSCAASGSTFRVYAMGWYRQAPGKERELVAAISGSGGSTYYADSVKGRFTISRDNAKNTVSLQMNSMKPEDTAVYYCAARSWYTEYYWGQGTQVTVSS”, the “polyreactivity (PSR sort gate)” value was “high polyreactivity”. With “QVQLVESGGGLVQAGGSLRLSCAASGSTFRVYAMGWYRQAPGKERELVAAISRSGSITYYADSVKGRFTISRDNAKNTVYLQMNSLKPEDTAVYYCAARTYSRFTASTYYYWGQGTQVTVSS” the “polyreactivity (PSR sort gate)” value was “high polyreactivity”. In the case of “QVQLVESGGGLVQAGGSLRLSCAASGSTFRWNTMGWDRQAPGKEREMVAAISYSGGITYYADSVKGRFTISRDNAKNTVYLQMNSLKPEDTAVYYCNLVAYRSYLSSYDYWGQGTQVTVSS”, the “polyreactivity (PSR sort gate)” value was “high polyreactivity”. With “QVQLVESGGGLVQAGGSLRLSCAASGSTFRWYAMGWYRQAPGKERELVAAITSSGSTYYADSVKGRFTISRDNAKNTVYLQMNSLKPEDTAVYYCAARANGYWNTYEHDYWGQGIQVTVSS” the “polyreactivity (PSR sort gate)” value was “low polyreactivity”. With “QVQLVESGGGLVQAGGSLRLSCAASGSTFRWYTMGWYRQATGKERDLVAAINQSGSRTYYADSVKGRFTISRDNAKNTVYLQMNSLKPEDTAVYYCNAKSYKSPHTYYYWGQGTQVTVSS” the “polyreactivity (PSR sort gate)” value was “high polyreactivity”. For “QVQLVESGGGLVQAGGSLRLSCAASGSTFRYNAMGWYRQAPGKERELVAAINRGGGTDYADSVKGRFTISRDNAKNTVYLQMNSLKPEDTAVYYCNATTGYGGYNYWGQGTQVTVSS”, the “polyreactivity (PSR sort gate)” value was “low polyreactivity”. With “QVQLVESGGGLVQAGGSLRLSCAASGSTFRYNAMGWYRQAPGKERELVAAITGSGDRTFYADSVKGRFTISRDNAKNTVYLQMNSLKPEDTAVYYCAARSRYPFSYGYYYWGQGTQVTVSS” the “polyreactivity (PSR sort gate)” value was “high polyreactivity”. In the case of “QVQLVESGGGLVQAGGSLRLSCAASGSTFRYNAMGWYRQAPGKERELVAAITSGGGTNYADSVKGRFTISRDNAKNTVYLQMNSLKPEDTAVYYCAAGAWRGPYSGYYYWGQGTQVTVSS”, the “polyreactivity (PSR sort gate)” value was “low polyreactivity”. For “QVQLVESGGGLVQAGGSLRLSCAASGSTFRYNAMGWYRQAPGKERELVAAITSGGTTNYADSVKGRFTISRDNAKNTVYLQMNSLKPEDTAVYYCAKKRPGFLRYGSIGEFQYDYWGQGTQVTVSS”, the “polyreactivity (PSR sort gate)” value was “low polyreactivity”. With “QVQLVESGGGLVQAGGSLRLSCAASGSTFRYNAMGWYRQAPGKERELVASINRGGGGTYYADSVKGRFTISRDNAKKTVYLQMNSLKPEDTAVYYCAKARFTRGTWFYYWGQGTQVTVSS” the “polyreactivity (PSR sort gate)” value was “high polyreactivity”. With “QVQLVESGGGLVQAGGSLRLSCAASGSTFRYNAMGWYRQAPGKERELVASITWSGGDTYYADSVKGRFTISRDNAKNTVYLQMNSLKPEDTAVYYCAKKGYASRYFIYDYWGQGTQVTVSS” the “polyreactivity (PSR sort gate)” value was “low polyreactivity”. With “QVQLVESGGGLVQAGGSLRLSCAASGSTFRYNTMGWYRQAPGKEREFVAAISQSGGSTYYADSVKGRFTISRDNAKNTVYLQMNSLKPEDTAVYYCNARPFYATYRYRGYSWGQGTQVTVSS” the “polyreactivity (PSR sort gate)” value was “high polyreactivity”. In the case of “QVQLVESGGGLVQAGGSLRLSCAASGSTFRYNTMGWYRQAPGKERELVAAINISSSSTYYADSVKGRFTISRDNAKNTVYLQMNSLKPEDTAVYYCANRDYVPIATDENDDYWGQGTQVTVSS”, the “polyreactivity (PSR sort gate)” value was “low polyreactivity”. In the case of “QVQLVESGGGLVQAGGSLRLSCAASGSTFRYYAKGWYRQAPGKERELVAAIAAGSNTNYADSVKGRFTISRDNAKNTVYLQMNSVKPEDTAVFYCAVASYARVQYEYWGQGTQVTVNS”, the “polyreactivity (PSR sort gate)” value was “low polyreactivity”. With “QVQLVESGGGLVQAGGSLRLSCAASGSTFRYYAMAWYREAPGKERELVAAISRRGGSTYYADSVKGRFTISRDNAKNTVYLQMNSLIPEDTAVYYCNAAASTFTSWIRGPGVCYDYWGQGTQVTVSS” the “polyreactivity (PSR sort gate)” value was “high polyreactivity”. In the case of “QVQLVESGGGLVQAGGSLRLSCAASGSTFRYYAMGWYRHAPGKDRELVAAISGSGGRTYYADSVKGRFTISRDNAKNTVYLQMNSLKPEDTAVYYCNTRGRRTDYDYWGQGTQVTVSS”, the “polyreactivity (PSR sort gate)” value was “high polyreactivity”. With “QVQLVESGGGLVQAGGSLRLSCAASGSTFRYYAMGWYRQAPGKEREFVAAISWSGSSTYYADSVKGRFTISRDNAKNTVYLQMNSLKPEDTAVYYCAARYRYRSSSYDYWGQGTQVTVSS” the “polyreactivity (PSR sort gate)” value was “high polyreactivity”. In the case of “QVQLVESGGGLVQAGGSLRLSCAASGSTFRYYAMGWYRQAPGKERELVAAINSGGSTYYADSVKGRFTISRDNAKNTVYLQMNSLKPEDTAVYYCAAYYFWYLYWGQGTQVTVSS”, the “polyreactivity (PSR sort gate)” value was “high polyreactivity”. In the case of “QVQLVESGGGLVQAGGSLRLSCAASGSTFRYYAMGWYRQAPGKERELVAAITRGDSTNYADSVKGRFTISRDNAKNTVYLQMNSLKPEDTAVYYCNAGDGPDEEYDYWGQGTQVTVSS”, the “polyreactivity (PSR sort gate)” value was “low polyreactivity”. With “QVQLVESGGGLVQAGGSLRLSCAASGSTFRYYVMGWYRQAPGKERELVARITSAASTNYADSVKGRFTISRDNAKNTVYLQMNSLKPEDTAVYYCAARKYGSRYRLKYDYWGQGTQVTVSS” the “polyreactivity (PSR sort gate)” value was “high polyreactivity”. In the case of “QVQLVESGGGLVQAGGSLRLSCAASGSTFSANAMGWYRQAPGKERELVAAITYRGGNTYYADSVKGRFTISRDNAKNTVYLQLNSLKPEDTAVYYCNRDLRVRYRRLKYGYWGQGTQVTVSS”, the “polyreactivity (PSR sort gate)” value was “low polyreactivity”. In the case of “QVQLVESGGGLVQAGGSLRLSCAASGSTFSANAMGWYRQAPGKERELVADISTGGSTKYADSVKGRFTISRDNAKNTVYLQMNSLKPEDTAVYYCAARRRWARGSAIRGYWGQGTQVTVSS”, the “polyreactivity (PSR sort gate)” value was “high polyreactivity”. With “QVQLVESGGGLVQAGGSLRLSCAASGSTFSANTKGWYRQAPGTERELVAGITNTGDTYYADSVKGRFTISRDNAKNTVYLQMNSLKPEDTAVYYCAADSWRRTDGAYWSTVYYWGQGTQVTVSS” the “polyreactivity (PSR sort gate)” value was “low polyreactivity”. With “QVQLVESGGGLVQAGGSLRLSCAASGSTFSDNAMGGYRQAPGKERELVAAINETGGSTYYADSVKGRFTISRDNAKNTVYLQMNSLKPEDTAVYYCNADIDPYGATYAIEYDYWGQGTQVTVSS” the “polyreactivity (PSR sort gate)” value was “low polyreactivity”. With “QVQLVESGGGLVQAGGSLRLSCAASGSTFSDNAMGWYRQAPGKEREFVAAINETGGSTYYADSVKGRFTISRDNAKNTVYVQMNSLKPEDTAVYYCNADIDPYGATYAIEYDYWGQGTQVTVSS” the “polyreactivity (PSR sort gate)” value was “low polyreactivity”. With “QVQLVESGGGLVQAGGSLRLSCAASGSTFSDNAMGWYRQAPGKERELVAAITSGGSTYYADSVKGRFTISRDNAKNTVYLQMNSLKPEDTAVYYCAADYWGQGTQVTVSS” the “polyreactivity (PSR sort gate)” value was “low polyreactivity”. With “QVQLVESGGGLVQAGGSLRLSCAASGSTFSDYAMGWYRQAPGKERELVAAISRRGGSTYYADSVKGRFTISRDNAKNTVYLQMNSLKPEDTAVYYCAKAAYPWTRMEYWGQGTQVTVSS” the “polyreactivity (PSR sort gate)” value was “high polyreactivity”. For “QVQLVESGGGLVQAGGSLRLSCAASGSTFSDYVMGWYRQAPGKERELVAAISWSGDRTYYADSVKGRFTISRDNAKNTFYLQMNSLKPEDTAVYYCAAEYAPSDPSYYYGYDYWGQGTQVTVSS”, the “polyreactivity (PSR sort gate)” value was “high polyreactivity”. With “QVQLVESGGGLVQAGGSLRLSCAASGSTFSENAMGWYRQAPGKERELVAAISWGGGSTYYADSVKGRFTISRDYAKNTVYLQMNSLKPEDTAVYYCNADVFDDYGYFESDYWGQGTQVTVSS” the “polyreactivity (PSR sort gate)” value was “low polyreactivity”. For “QVQLVESGGGLVQAGGSLRLSCAASGSTFSFNAMGWYRQAPGKERELVAAIRWSGGSTYYADSVKGRFTISRDNAKNTVYLQMNSLKPEDTAVYYCATYWKGGRPPYRYYYWGQGTQVTVSS”, the “polyreactivity (PSR sort gate)” value was “high polyreactivity”. With “QVQLVESGGGLVQAGGSLRLSCAASGSTFSFNDMGWYRQAPGKERELVADISWSGDTTYADSVKGRFTISRDNAKKTVYLQMNSLKPEDTGVYYCDADRHRYQGYTYDYWGQGTQVTVSS” the “polyreactivity (PSR sort gate)” value was “high polyreactivity”.
